Experimental data reported in article PMC3005950.

Assays:
[1] = target: IL-7 receptor alpha chain extracellular domain, nonglycosylated, IL-7Ralpha (EC) (UniProt P16871); test: SPR; details: pH 7.4, 298 K, 10 mM HEPES (pH 7.4)
[2] = target: IL-7 receptor alpha chain extracellular domain, glycosylated, IL-7Ralpha (CHO) (UniProt P16871); test: SPR; details: pH 7.4, 298 K, 10 mM HEPES (pH 7.4)
[3] = target: IL-7Ralpha ECD (Homo sapiens) (UniProt P16871); details: cited from earlier work

ΔG^o ([1]; 50 mM NaCl)	k−1 ([1]; 300 mM NaCl)	ΔG^o ([1]; 300 mM NaCl)	ΔG^o ([2]; 50 mM NaCl)	ΔG^o ([2]; 1 M NaCl)	Substance	Kd [3]
-7.72 kcal/mol	0.121 s⁻¹	-4.68 kcal/mol	-11.8 kcal/mol	-8.33 kcal/mol	Interleukin-7 (IL-7)	–
–	–	–	–	–	IL-7 (from UniProt P13232)	60 nM
